{"source": "the RNAGym collection of RNA variant scans (doi:10.7554/elife.80360)", "parents": {"B1": {"name": "Hairpin Ribozyme (parent)", "chain": "GUCCUCUUUCACGUGCGCGUGAAAGAGAGAAGUGAACCAGAGAAACACACGUUGUGGUAUAUUACCUGGUA"}}, "data": [{"variants_of": "B1", "assay": "self-cleavage, relative activity (ratio to wild type); higher = more cleavage; co-transcriptional", "values": [{"variant": "G40A G69U", "self-cleavage": 0.197}, {"variant": "G42C A49C", "self-cleavage": 0.215}, {"variant": "G42C C46A", "self-cleavage": 0.166}, {"variant": "A39U U67G", "self-cleavage": 0.371}, {"variant": "G40C A64U", "self-cleavage": 0.125}, {"variant": "G40U U58G", "self-cleavage": 0.183}, {"variant": "G42U C65U", "self-cleavage": 0.12}, {"variant": "A41U U60G", "self-cleavage": 1.15}, {"variant": "A41G U53C", "self-cleavage": 0.819}, {"variant": "A41G U53A", "self-cleavage": 1.1}, {"variant": "A41C A45U", "self-cleavage": 0.202}, {"variant": "A41C A45C", "self-cleavage": 0.11}, {"variant": "A41C A45G", "self-cleavage": 0.257}, {"variant": "A41C G51A", "self-cleavage": 1.33}, {"variant": "A41C G51C", "self-cleavage": 1.16}, {"variant": "A41C G51U", "self-cleavage": 1.48}, {"variant": "G40U U52A", "self-cleavage": 0.207}, {"variant": "G40U U52C", "self-cleavage": 0.333}, {"variant": "G40U U52G", "self-cleavage": 0.172}, {"variant": "A41C A47G", "self-cleavage": 0.0213}, {"variant": "A43C C48U", "self-cleavage": 0.16}, {"variant": "A39U U70G", "self-cleavage": 0.333}, {"variant": "A43C U62A", "self-cleavage": 0.12}, {"variant": "G40U G42U", "self-cleavage": 0.116}, {"variant": "G40C G68C", "self-cleavage": 0.0987}, {"variant": "G40C G68A", "self-cleavage": 0.132}, {"variant": "G42A U70G", "self-cleavage": 0.161}, {"variant": "G42A G57A", "self-cleavage": 0.14}, {"variant": "G42A G57C", "self-cleavage": 0.0908}, {"variant": "G40A A43U", "self-cleavage": 0.0963}, {"variant": "G40A A43G", "self-cleavage": 0.18}, {"variant": "G42A C48U", "self-cleavage": 0.0486}, {"variant": "G40C A43G", "self-cleavage": 0.138}, {"variant": "A43G A64G", "self-cleavage": 0.132}, {"variant": "G40U G54U", "self-cleavage": 0.096}, {"variant": "A43G A45C", "self-cleavage": 0.142}, {"variant": "A43G A45G", "self-cleavage": 0.104}, {"variant": "G40A U62G", "self-cleavage": 0.133}, {"variant": "A41G A49G", "self-cleavage": 0.504}, {"variant": "A41G A49U", "self-cleavage": 0.105}, {"variant": "A43G A61C", "self-cleavage": 0.0791}, {"variant": "A41C C48G", "self-cleavage": 0.199}, {"variant": "G40A G57A", "self-cleavage": 0.0955}, {"variant": "A41G C46G", "self-cleavage": 0.116}, {"variant": "G42U A44U", "self-cleavage": 0.19}, {"variant": "G42U A44C", "self-cleavage": 0.188}, {"variant": "A41U C66A", "self-cleavage": 0.271}, {"variant": "A41U C66G", "self-cleavage": 0.172}, {"variant": "G42A U60C", "self-cleavage": 0.371}, {"variant": "G42A U60G", "self-cleavage": 0.157}, {"variant": "G40A U55A", "self-cleavage": 0.157}, {"variant": "G42A U67C", "self-cleavage": 0.105}, {"variant": "G42A A47C", "self-cleavage": 0.219}, {"variant": "A41C U63A", "self-cleavage": 0.108}, {"variant": "A41C U63G", "self-cleavage": 0.102}, {"variant": "A41C U63C", "self-cleavage": 0.192}, {"variant": "G42U C48U", "self-cleavage": 0.132}, {"variant": "G42A A43U", "self-cleavage": 0.215}, {"variant": "G42C G56A", "self-cleavage": 0.155}, {"variant": "A41U U58G", "self-cleavage": 1.02}, {"variant": "A41U U58A", "self-cleavage": 1.2}, {"variant": "G40U A71G", "self-cleavage": 0.209}, {"variant": "G40U A71C", "self-cleavage": 0.319}, {"variant": "G42A C66G", "self-cleavage": 0.113}, {"variant": "G42A C66A", "self-cleavage": 0.0634}, {"variant": "G40A U52G", "self-cleavage": 0.212}, {"variant": "A39U U60A", "self-cleavage": 0.345}, {"variant": "A39U U60C", "self-cleavage": 0.378}, {"variant": "G40U C65G", "self-cleavage": 0.099}, {"variant": "G40U C65U", "self-cleavage": 0.177}, {"variant": "A39U U62G", "self-cleavage": 0.088}, {"variant": "G40C U52G", "self-cleavage": 0.064}, {"variant": "G40C U52C", "self-cleavage": 0.137}, {"variant": "G42C G51C", "self-cleavage": 0.227}, {"variant": "A43G G57A", "self-cleavage": 0.198}, {"variant": "A43G G57U", "self-cleavage": 0.151}, {"variant": "G42U A61C", "self-cleavage": 0.193}, {"variant": "G40A C66U", "self-cleavage": 0.832}, {"variant": "G40A C66G", "self-cleavage": 0.164}, {"variant": "A41C G54C", "self-cleavage": 0.676}, {"variant": "A41U G42U", "self-cleavage": 0.325}, {"variant": "G40U A43U", "self-cleavage": 0.148}, {"variant": "G40U A43G", "self-cleavage": 0.134}]}]}
